Assay results as given in patent publication US20230107644A1.

Columns and labels:
[1] = target: HA (H3) of influenza virus A/Uruguay/716/2007 (influenza A virus A/Uruguay/716/2007 (H3N2)); assay: cell-based or functional assay
[2] = target: HA (H3) of influenza virus A/Victoria/210/2009 (influenza A virus A/Victoria/210/2009 (H3N2)); assay: cell-based or functional assay
[3] = target: HA (H3) of influenza virus A/Victoria/361/2011 (influenza A virus A/Victoria/361/2011 (H3N2)); assay: cell-based or functional assay
[4] = target: HA (H3) of influenza virus A/Wisconsin/67/2005 (influenza A virus A/Wisconsin/67/2005 (H3N2)); assay: cell-based or functional assay
[5] = target: HA (H3) of influenza virus A/Perth/16/2009 (influenza A virus A/Perth/16/2009 (H3N2)); assay: cell-based or functional assay
[6] = target: HA (H3) of influenza virus A/Texas/50/2012 (influenza A virus A/Texas/50/2012 (H3N2)); assay: cell-based or functional assay
[7] = target: HA (H3) of influenza virus A/Brisbane/10/2007 (influenza A virus A/Brisbane/10/2007 (H3N2)); assay: cell-based or functional assay
[8] = target: HA (H3) of influenza virus A/Switzerland/9715283/2013 (influenza A virus A/Switzerland/9715283/2013 (H3N2)); assay: cell-based or functional assay
[9] = target: H7 protein
[10] = target: H1 protein
[11] = target: H3 A/duck/Shantou/1283/2001 (Influenza A virus (A/duck/Shantou/1283/2001))
[12] = target: HA (H3) of influenza virus A/Wisconsin/67/2005 (influenza A virus A/Wisconsin/67/2005 (H3N2))
[13] = target: HA (H3) of influenza virus A/Perth/16/2009 (influenza A virus A/Perth/16/2009 (H3N2))
[14] = target: HA (H3) of influenza virus A/Brisbane/10/2007 (influenza A virus A/Brisbane/10/2007 (H3N2))
[15] = target: NA (N2) of influenza virus A/Brisbane/10/2007 (influenza A virus A/Brisbane/10/2007 (H3N2))
[16] = target: NA (N2) of influenza virus A/Wisconsin/67/2005 (influenza A virus A/Wisconsin/67/2005 (H3N2))
[17] = target: N2 A/shorebird/Delaware/127/1997 (Influenza A virus (A/shorebird/Delaware/127/1997))
[18] = target: NA (N2) of influenza virus A/Brisbane/10/2007 (influenza A virus A/Brisbane/10/2007 (H3N2)); assay: cell-based or functional assay
[19] = target: NA (N2) of influenza virus A/Perth/16/2009 (influenza A virus A/Perth/16/2009 (H3N2)); assay: cell-based or functional assay
[20] = target: NA (N2) of influenza virus A/Victoria/361/2011 (influenza A virus A/Victoria/361/2011 (H3N2)); assay: cell-based or functional assay
[21] = target: NA (N2) of influenza virus A/Wisconsin/67/2005 (influenza A virus A/Wisconsin/67/2005 (H3N2)); assay: cell-based or functional assay
[22] = target: NA (N2) of influenza virus A/Uruguay/716/2007 (influenza A virus A/Uruguay/716/2007 (H3N2)); assay: cell-based or functional assay
[23] = target: NA (N2) of influenza virus A/Texas/50/2012 (influenza A virus A/Texas/50/2012 (H3N2)); assay: cell-based or functional assay

Binder	NT50 [1] [µg/mL]	NT50 [2] [µg/mL]	NT50 [3] [µg/mL]	NT50 [4] [µg/mL]	NT50 [5] [µg/mL]	NT50 [6] [µg/mL]	NT50 [7] [µg/mL]	NT50 [8] [µg/mL]	ELISA area under curve (AUC) [9]	ELISA area under curve (AUC) [10]	ELISA area under curve (AUC) [11]	ELISA area under curve (AUC) [12]	ELISA area under curve (AUC) [13]	ELISA area under curve (AUC) [14]	ELISA area under curve (AUC) [15]	ELISA area under curve (AUC) [16]	ELISA area under curve (AUC) [17]	other results
1092E4 hmAb (antibody, V domains shown) VH: QVQLVQSGAEVKKPGASVKVSCKASGYSFTRYGISWVRQAPGQGLEWMGWISAYTGNTDYAQKFQGRITMTTDTSTSTVYMELRSLRSDDTAVYYCARDHPQGVVILGSYYYGMDVWGQGNTVTVSS VL: EIVLTQSPGTLSLSPGERATLSCRASQSVTSRYLAWYQQKLGQAPRLLIYGASSRATGIPDRFSGSGSGTDFTLTISSLEPEDFAVYYCQQSGSPRTFGQGTKVEIK	0.1	6.25	0.1	0.2	3.13	6.25	0.1	6.25	26	18.5	28.7	32.5	33.4	31.7				
1092C4 hmAb (antibody, V domains shown) VH: EVQLVQSGAEVKKPGASVKVSCKASGYSFTRYGISWVRQAPGQGLEWMGWISAYTGNTDYAQKFQGRITMTTDTSTSTAYMELRSLRSDDTAVYYCARDLPQGVVILGSYYYGMDVWGQGNTVTVSS VL: EIVLTQSPGTLSLSPGERATLSCRASQSVTSRYLAWYQQKLGQAPRLLIYGASSRATGIPDRFSGSGSGTDFTLTISSLEPEDLAVYYCQQSGSPRTFGQGTKVEIK	0.2	6.25	0.1	1.6	3.13	6.25	0.1	0.78	27.3	9.8	34.4	33.7	31.4	32.3				
1122B9 hmAb (antibody, V domains shown) VH: EVQLVESGGGLVQPGGSLRLSCAASGFTFSGYAMSWVRQAPGKGLECVSGIIGSGGSTYSADSVKGRFTISRDNSKNTLDLEMNSLRAEDTAVYYCAKHTKSHYYSGMGVWGQGTTVTVSS VL: DIQMTQSPSSLSASVGDRVTITCQASQDISNYLNWYQQRPGKAPKLLIYDAANLETGVPSRFSGSGSATQFTFTISGLQPEDFATYYCQQYDNLPLTFGGGTKVEIK															35.2	35.3	25.2	
1122A11 hmAb (antibody, V domains shown) VH: QVQLVQSGAEVSKPGASVKVSCKASGYSFTSQSLGWVRQAPGQGLEWMGIINPSGGITNYAHKFQGRVTMTRDTSTSTVYMELSSLRSEDTALYYCVRDLSHYNEVGHDRAYYYGMDIWGQGTTVTVSS VL: SYELIQPPSVSVSPGQTASITCSGDKLGKKYTCWYQQKPGQSPVLVIYQDNKRPSGIPERFSGSNSGNTATLTISGTQAMDEADYYCQAWDSSAVVFGGGTKLTVL															35.8	34.7	15.2	NT50 [18]: 6.25 µg/mL; NT50 [19]: 0.2 µg/mL; NT50 [20]: 1.6 µg/mL; NT50 [21]: 25 µg/mL; NT50 [22]: 0.2 µg/mL; NT50 [23]: 3.13 µg/mL
1086G8 hmAb (antibody, V domains shown) VH: EVQLLESGGGLVQPGGSLRLSCTASGFTFASDAMNWVRQAPGKGLEWVSAISGNGGITYFADSVKGRFTISRDNSKDTLYLQMDSLRAEDTAVYYCAKGVAPSHFNLLTGYYAGHYYFDFWGQGTLVTVSS VL: EIVMTQSPATLSVSPGERATLSCRASQSVRHNLAWYQHKPGQPPRLLIYGASTRAASVPARFSGSGSGTDFTLTISSLQSEDFAVYYCQQYNHWPPYTFGQGTKLEIK	0.4	12.5	0.2	3.13	6.25	6.25	0.4	12.5	25.2	11.4	31.4	33.7	28	31.2				
